Measurements reported in US20220162338A1 (SICHUAN KELUN BIOTECH BIOPHARMACEUTICAL, published 2022).
Positions count from the first letter of the chain named. Names may count otherwise.

B1: humanized antibody 36G9.10-hz73 (antibody, human IgG1, kappa, N297A, V domains shown)
VH: EVQLVQSGAEVKKPGATVKISCKASGFNIKDTYIHWVQQAPGKGLEWMGRIDPANDNTIYAEKFQGRVTITADTSTNTAYMELSSLRSEDTAVYYCAQDYDGFAMDYWGQGTLVTVSS
VL: DIQMTQSPSSLSASVGDRVTITCKASQDINKYITWFQQKPGKAPKLLIHYTSTLQPGVPSRFSGSGSGRDYTLTISSLQPEDFATYYCLQYDYLLTFGGGTKVEIKR
B2: humanized antibody 36G9.10-hz43 (antibody, human IgG1, kappa, N297A, V domains shown)
VH: QVQLVQSGAEVKKPGASVKVSCKASGFNIKDTYIHWVRQAPGQGLEWIGRIDPANDNTNYAQKFQGRVTMTADTSINTAYMELSRLRSDDTAVYYCAQDYDGFAMDYWGQGTLVTVSS
VL: B1 VL
B3: humanized antibody 36G9.10-hz74 (antibody, human IgG1, kappa, N297A, V domains shown)
VH: B1 VH
VL: B1 VL with F36Y, H49Y, R69T, Y71F, L73F, F83I
B4: humanized antibody 36G9.10-hz93 (antibody, human IgG1, kappa, N297A, V domains shown)
VH: B1 VH with M48I, I59K, A61D, E62P
VL: B1 VL
B5: humanized antibody 36G9.10-hz92 (antibody, human IgG1, kappa, N297A, V domains shown)
VH: B1 VH with M48I, I59K, A61D, E62P
VL: B1 VL with R69T, Y71F
B6: murine antibody 36G9.10 (antibody, mouse IgG1, V domains shown)
VH: EVQLQQSGAELVKPGASVKLSCTASGFNIKDTYIHWVKQRPEQGLEWIGRIDPANDNTKYDPKFQGKATITADTSSNTAYLQLSSLTSEDSAVYYCAQDYDGFAMDYWGQGTSVTVSS
VL: DIQMTQSPSSLSASLGGKVTITCKASQDINKYITWFQHKPGKGPRLLIHYTSTLQPGIPSRFSGSGSGRDYSFSISNLEPEDSATYYCLQYDYLLTFGGGTKLEIK
notes: also called 36G9.10 murine antibody; murine anti-human FXI/FXIa monoclonal antibody
B7: chimeric antibody 36G9.10-hz00 (antibody, human IgG1, kappa, N297A, V domains shown)
VH: B6 VH
VL: DIQMTQSPSSLSASLGGKVTITCKASQDINKYITWFQHKPGKGPRLLIHYTSTLQPGIPSRFSGSGSGRDYSFSISNLEPEDSATYYCLQYDYLLTFGGGTKLEIKR
notes: Murine variable regions grafted to human IgG1 (N297A) and human kappa constant regions
B8: BAY-1213790 (antibody, V domains shown)
VH: EVQLLESGGGLVQPGGSLRLSCAASGFTFSQYGMDWVRQAPGKGLEWVSGIGPSGGSTVYADSVKGRFTISRDNSKNTLYLQMNSLRAEDTAVYYCTRGGPYYYYGMDVWGQGTTVTVSS
VL: DIQMTQSPSSLSASVGDRVTITCQASQDISNYLNWYQQKPGKAPKLLIYDASNLETGVPSRFSGSGSGTDFTFTISSLQPEDIATYYCQQADSFPVTFGGGTKVEIKR

Legend:
[1] = target: T1, human FXIa (activated human coagulation Factor XI) (human, UniProt P03951 19-387; P03951 388-625); assay: cell-based or functional assay
[2] = target: T2, human FXI antigen expressed in 293F cells (human, UniProt P03951 19-625, limits assumed); assay: ELISA, FXI antigen (293F) coated at 1 µg/mL, HRP goat-anti-human detection
T2 construct: also called FXI antigen (PMD-F11 plasmid cloned into PLVX-IRES-PURO, 293F)

[3] = target: T1, human FXIa (activated human coagulation …); assay: ELISA, FXIa coated at 1 µg/mL, HRP goat-anti-human detection
[4] = target: T1, human FXIa (activated human coagulation …); assay: cell-based or functional assay; remark: listed apart in the source
[5] = target: T3, human FXI (human coagulation Factor XI) (human, UniProt P03951 19-625); assay: BLI (Octet Fortebio), antibody on AHC (anti-human-Fc) sensor, FXI in solution
T3 construct: Bought protein; Biotin-labeled form (HCXI-0150-B) was used in the hybridoma screen; also called FXI protein; FXI antigen
Procedure: Octet Fortebio® was used for the affinity determination of chimeric and humanized antibodies. […] The data obtained were analyzed by Octet data analysis software.

[6] = target: T1, human FXIa (activated human coagulation …); assay: cell-based or functional assay; remark: listed apart in the source
[7] = target: T1, human FXIa (activated human coagulation …); assay: BLI (Octet ForteBio), biotin-labeled antibody on streptavidin sensor, FXIa in solution, bivalent model
Procedure: (§1) The specific experimental steps were as follows: the streptavidin biosensors was first bound with the biotin-labeled antibody to be tested to reach a response signal value of 0.8 nm, then bound with FXIa protein (3.2, 1.6, 0.8, 0.4, 0.2, 0.1, 0.05, and 0 μg/mL) for 5 minutes, then dissociation was performed for 7 minutes, and the bivalent analysis model was used for all fitting analysis.

[8] = target: T1, human FXIa (activated human coagulation …); assay: BLI (Octet ForteBio), ratio of KD against BAY-1213790
Procedure: as §1

[9] = target: T1, human FXIa (activated human coagulation …); assay: BLI (Octet ForteBio), ratio of KD against 14E11
Procedure: as §1

Binder	Kd [5] [nM]	koff [5] [s⁻¹]	kon [5] [M⁻¹ s⁻¹]	also measured
B1	0.0103	6.51e-05	6.31e+06	APTT detection (EC50, nM), sample at 0 days [1]: 18.4 nM; APTT detection (EC50, nM), sample stored at 25° C. for 28 days [1]: 17.4 nM; APTT detection (EC50, nM), sample stored at 40° C. for 14 days [1]: 20.3 nM; APTT detection (EC50, nM), sample stored at 40° C. for 28 days [1]: 26.9 nM; EC50 [2]: 9.68 ng/mL; EC50 [3]: 2.49 ng/mL; IC50 value (ng/mL), inhibition of the catalytic effect of FXIa on fluorescent substrate I-1575 [4]: 26.2 ng/mL; APTT in human plasma, fold prolongation [6]: 2.2 times
B2	0.0441	0.000255	5.77e+06	–
B3	0.00798	5.16e-05	6.47e+06	–
B4	0.00881	5.34e-05	6.06e+06	–
B5	0.0152	7.69e-05	5.07e+06	–
B6	–	–	–	Kd [7]: 0.48 nM; koff [7]: 0.00072 s⁻¹; kon [7]: 1.5e+06 M⁻¹ s⁻¹; fold stronger affinity than BAY-1213790 [8]: 2.5 times; fold stronger affinity than 14E11 [9]: 1.7 times
B7	0.00366	2.39e-05	6.52e+06	–
B8	0.374	0.00034	910000	Kd [7]: 1.19 nM; koff [7]: 0.00109 s⁻¹; kon [7]: 918000 M⁻¹ s⁻¹; EC50 [3]: 6.16 ng/mL; IC50 value (ng/mL), inhibition of the catalytic effect of FXIa on fluorescent substrate I-1575 [4]: 70 ng/mL
